Laboratory results taken from PMC7332966 (2020).

Target: FANCD2 (from His6-3C-FANCD2, His6-tag cleaved by 3C protease) (human, UniProt Q9BXW9 1-1451)
Sequence (Q9BXW9 whole entry): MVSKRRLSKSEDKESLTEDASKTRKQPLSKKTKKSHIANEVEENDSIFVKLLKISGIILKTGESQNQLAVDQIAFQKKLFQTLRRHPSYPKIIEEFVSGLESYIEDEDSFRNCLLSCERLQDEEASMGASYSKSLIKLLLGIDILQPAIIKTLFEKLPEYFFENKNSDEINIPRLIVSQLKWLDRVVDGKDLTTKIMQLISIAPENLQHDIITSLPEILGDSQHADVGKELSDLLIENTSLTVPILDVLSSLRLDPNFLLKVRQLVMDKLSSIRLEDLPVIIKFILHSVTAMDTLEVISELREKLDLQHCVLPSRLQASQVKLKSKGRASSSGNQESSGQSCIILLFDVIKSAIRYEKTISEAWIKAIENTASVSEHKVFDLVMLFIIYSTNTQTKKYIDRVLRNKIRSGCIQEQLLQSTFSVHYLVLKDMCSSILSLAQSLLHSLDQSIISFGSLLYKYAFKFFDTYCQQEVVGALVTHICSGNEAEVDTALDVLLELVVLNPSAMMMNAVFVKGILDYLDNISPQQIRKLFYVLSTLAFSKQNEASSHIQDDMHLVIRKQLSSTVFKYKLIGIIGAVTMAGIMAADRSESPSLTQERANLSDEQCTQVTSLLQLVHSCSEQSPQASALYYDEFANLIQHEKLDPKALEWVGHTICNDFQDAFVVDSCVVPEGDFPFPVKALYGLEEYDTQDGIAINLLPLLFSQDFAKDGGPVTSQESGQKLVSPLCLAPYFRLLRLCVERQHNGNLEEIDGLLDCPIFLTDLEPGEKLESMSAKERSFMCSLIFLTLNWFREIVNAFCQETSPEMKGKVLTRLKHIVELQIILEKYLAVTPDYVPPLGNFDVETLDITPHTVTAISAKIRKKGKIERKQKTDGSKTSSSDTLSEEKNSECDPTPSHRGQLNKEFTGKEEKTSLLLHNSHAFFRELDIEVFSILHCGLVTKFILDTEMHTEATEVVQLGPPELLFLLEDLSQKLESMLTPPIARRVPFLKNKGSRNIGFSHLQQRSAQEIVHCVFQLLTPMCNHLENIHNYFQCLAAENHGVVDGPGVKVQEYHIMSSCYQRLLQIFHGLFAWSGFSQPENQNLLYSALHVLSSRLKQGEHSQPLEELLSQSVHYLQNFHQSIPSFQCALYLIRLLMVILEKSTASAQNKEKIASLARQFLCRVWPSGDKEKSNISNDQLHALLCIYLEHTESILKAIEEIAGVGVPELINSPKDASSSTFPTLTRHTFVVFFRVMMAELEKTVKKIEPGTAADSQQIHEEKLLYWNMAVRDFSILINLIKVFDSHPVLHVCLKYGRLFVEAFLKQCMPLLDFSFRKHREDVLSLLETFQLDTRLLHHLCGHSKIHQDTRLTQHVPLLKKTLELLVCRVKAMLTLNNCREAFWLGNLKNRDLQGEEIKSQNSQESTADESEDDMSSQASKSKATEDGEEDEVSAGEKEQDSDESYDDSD

B1: His6-FANCI (wild type) (natural protein)
chain: MDQKILSLAAEKTADKLQEFLQTLREGDLTNLLQNQAVKGKVAGALLRAIFKGSPCSEEAGTLRRRKIYTCCIQLVESGDLQKEIASEIIGLLMLEAHHFPGPLLVELANEFISAVREGSLVNGKSLELLPIILTALATKKENLAYGKGVLSGEECKKQLINTLCSGRWDQQYVIQLTSMFKDVPLTAEEVEFVVEKALSMFSKMNLQEIPPLVYQLLVLSSKGSRKSVLEGIIAFFSALDKQHNEEQSGDELLDVVTVPSGELRHVEGTIILHIVFAIKLDYELGRELVKHLKVGQQGDSNNNLSPFSIALLLSVTRIQRFQDQVLDLLKTSVVKSFKDLQLLQGSKFLQNLVPHRSYVSTMILEVVKNSVHSWDHVTQGLVELGFILMDSYGPKKVLDGKTIETSPSLSRMPNQHACKLGANILLETFKIHEMIRQEILEQVLNRVVTRASSPISHFLDLLSNIVMYAPLVLQSCSSKVTEAFDYLSFLPLQTVQRLLKAVQPLLKVSMSMRDCLILVLRKAMFANQLDARKSAVAGFLLLLKNFKVLGSLSSSQCSQSLSVSQVHVDVHSHYNSVANETFCLEIMDSLRRCLSQQADVRLMLYEGFYDVLRRNSQLANSVMQTLLSQLKQFYEPKPDLLPPLKLEACILTQGDKISLQEPLDYLLCCIQHCLAWYKNTVIPLQQGEEEEEEEEAFYEDLDDILESITNRMIKSELEDFELDKSADFSQSTSIGIKNNICAFLVMGVCEVLIEYNFSISSFSKNRFEDILSLFMCYKKLSDILNEKAGKAKTKMANKTSDSLLSMKFVSSLLTALFRDSIQSHQESLSVLRSSNEFMRYAVNVALQKVQQLKETGHVSGPDGQNPEKIFQNLCDITRVLLWRYTSIPTSVEESGKKEKGKSISLLCLEGLQKIFSAVQQFYQPKIQQFLRALDVTDKEGEEREDADVSVTQRTAFQIRQFQRSLLNLLSSQEEDFNSKEALLLVTVLTSLSKLLEPSSPQFVQMLSWTSKICKENSREDALFCKSLMNLLFSLHVSYKSPVILLRDLSQDIHGHLGDIDQDVEVEKTNHFAIVNLRTAAPTVCLLVLSQAEKVLEEVDWLITKLKGQVSQETLSEEASSQATLPNQPVEKAIIMQLGTLLTFFHELVQTALPSGSCVDTLLKDLCKMYTTLTALVRYYLQVCQSSGGIPKNMEKLVKLSGSHLTPLCYSFISYVQNKSKSLNYTGEKKEKPAAVATAMARVLRETKPIPNLIFAIEQYEKFLIHLSKKSKVNLMQHMKLSTSRDFKIKGNILDMVLREDGEDENEEGTASEHGGQNKEPAKKKRKK
modifications: RED-tris-NTA dye (NanoTemper) on the His6 tag
B1 gave a Kd of 11 nM.
